tested on: Escherichia coli TOP10; experiment: shrunken log2 fold change of peptide-encoding DNA abundance (4.5 h post-induction vs induction); higher = less antimicrobial activity (less host growth inhibition); details: time post-induction: 4.5 h; library: site-saturation at positions 5, 18, 19, 20
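Further: peptides expressed intracellularly from a pBAD plasmid library in pooled LB shake-flask culture, induced with 0.3% L-arabinose, DNA abundance read by NGS, three biological replicates, DESeq2 with apeglm shrinkage.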

Sequence	shrunken log2 fold change
RRIRNRPPRLPRPRPRPPDKPRP	0.182
RRIRPRPPRLPRPRPRPGCNPRP	-0.124
RRIRARPPRLPRPRPRPCSEPRP	0.244
RRIRERPPRLPRPRPRPPPLPRP	0.222
RRIRMRPPRLPRPRPRPLCVPRP	0.361
RRIRRRPPRLPRPRPRPYWGPRP	0.133
RRIRKRPPRLPRPRPRPVHRPRP	-0.0578
RRIRLRPPRLPRPRPRPPQIPRP	0.0736
RRIRTRPPRLPRPRPRPWFFPRP	-0.0908
RRIRDRPPRLPRPRPRPGECPRP	-0.0602
RRIRHRPPRLPRPRPRPRDPPRP	-0.153
RRIRGRPPRLPRPRPRPNWFPRP	0.469
RRIRYRPPRLPRPRPRPHQLPRP	-0.191
RRIRRRPPRLPRPRPRPDRAPRP	0.322
RRIRSRPPRLPRPRPRPADIPRP	0.0495
RRIRHRPPRLPRPRPRPDQTPRP	-0.0379
RRIRVRPPRLPRPRPRPCPVPRP	-0.0687
RRIRGRPPRLPRPRPRPQWAPRP	0.498
RRIRIRPPRLPRPRPRPDNAPRP	-0.717
RRIRFRPPRLPRPRPRPITRPRP	0.114
RRIRYRPPRLPRPRPRPWTCPRP	-0.362
RRIRPRPPRLPRPRPRPITCPRP	0.102
RRIRNRPPRLPRPRPRPHWSPRP	-0.285
RRIRVRPPRLPRPRPRPWKFPRP	-0.00968
RRIRERPPRLPRPRPRPWMCPRP	-0.11

Sequence	shrunken log2 fold change
RRIRWRPPRLPRPRPRPQRNPRP	0.0121
RRIRRRPPRLPRPRPRPQIDPRP	0.332
RRIRERPPRLPRPRPRPFVPPRP	-0.507
RRIRNRPPRLPRPRPRPFNGPRP	-0.0926
RRIRCRPPRLPRPRPRPETVPRP	0.448
RRIRPRPPRLPRPRPRPFWDPRP	-0.465
RRIRPRPPRLPRPRPRPEITPRP	0.175
RRIRFRPPRLPRPRPRPDLFPRP	0.0316
RRIRERPPRLPRPRPRPYFDPRP	-0.926
RRIRERPPRLPRPRPRPNNHPRP	-0.933
RRIRFRPPRLPRPRPRPGCSPRP	-0.0796
RRIRQRPPRLPRPRPRPHEEPRP	-0.0442
RRIRQRPPRLPRPRPRPCYQPRP	-0.0254
RRIRSRPPRLPRPRPRPAQVPRP	0.09
RRIRFRPPRLPRPRPRPQVAPRP	0.147
RRIRDRPPRLPRPRPRPRCYPRP	0.105
RRIRHRPPRLPRPRPRPSFFPRP	-0.41
RRIRNRPPRLPRPRPRPFPSPRP	-0.0692
RRIRNRPPRLPRPRPRPDWGPRP	0.128
RRIRQRPPRLPRPRPRPAFVPRP	-0.0399
RRIRQRPPRLPRPRPRPMTDPRP	-0.0989
RRIRIRPPRLPRPRPRPYQAPRP	-0.342
RRIRNRPPRLPRPRPRPSCEPRP	-0.229
RRIRQRPPRLPRPRPRPKFMPRP	-0.18
RRIRPRPPRLPRPRPRPQCQPRP	0.00656

Sequence	shrunken log2 fold change
RRIRVRPPRLPRPRPRPYFHPRP	-0.738
RRIRNRPPRLPRPRPRPSFNPRP	-0.143
RRIRARPPRLPRPRPRPESLPRP	0.938
RRIRWRPPRLPRPRPRPMELPRP	1.2
RRIRVRPPRLPRPRPRPFNGPRP	-0.15
RRIRQRPPRLPRPRPRPHPTPRP	-0.13
RRIRVRPPRLPRPRPRPYYFPRP	-0.777
RRIRERPPRLPRPRPRPAFQPRP	0.0677
RRIRSRPPRLPRPRPRPEALPRP	-0.0643
RRIRDRPPRLPRPRPRPGNSPRP	-0.0582
RRIRFRPPRLPRPRPRPMIWPRP	-0.101
RRIRVRPPRLPRPRPRPGRNPRP	-0.00746
RRIRNRPPRLPRPRPRPSGVPRP	-0.0499
RRIRFRPPRLPRPRPRPGVQPRP	0.119
RRIRRRPPRLPRPRPRPVLHPRP	0.0722
RRIRSRPPRLPRPRPRPYKDPRP	-0.716
RRIRGRPPRLPRPRPRPAHEPRP	0.0535
RRIRQRPPRLPRPRPRPRHFPRP	0.0257
RRIRNRPPRLPRPRPRPRYTPRP	-0.56
RRIRMRPPRLPRPRPRPKYDPRP	0.114
RRIRMRPPRLPRPRPRPFPIPRP	0.0281
RRIRSRPPRLPRPRPRPIWEPRP	0.0462
RRIRPRPPRLPRPRPRPKASPRP	0.105
RRIRNRPPRLPRPRPRPNKIPRP	-0.658
RRIRTRPPRLPRPRPRPTPHPRP	0.283
